Experiment [1] concerns the target T1, alphaVBeta5 (αVβ5) integrin heterodimer (UniProt P06756 31-992; P18084 24-719).
T1 construct: Heterodimer used in ELISA; source and construct not described; also called aVB5
The experiment can be described thus: ELISA. A general note: ELISA stands for enzyme-linked immunosorbent assay.

Experiment [2] concerns the target T1, alphaVBeta5 (αVβ5) integrin heterodimer. The experiment can be described thus: ELISA, average of 5 experiments normalized to VTN-FL.
For experiment [3] the target is unchanged. The experiment can be described thus: ELISA; printed as ED50 (median effective dose).

Some results are limits rather than exact numbers.

T1 sequence (P06756 31-992, chain 1 of 2): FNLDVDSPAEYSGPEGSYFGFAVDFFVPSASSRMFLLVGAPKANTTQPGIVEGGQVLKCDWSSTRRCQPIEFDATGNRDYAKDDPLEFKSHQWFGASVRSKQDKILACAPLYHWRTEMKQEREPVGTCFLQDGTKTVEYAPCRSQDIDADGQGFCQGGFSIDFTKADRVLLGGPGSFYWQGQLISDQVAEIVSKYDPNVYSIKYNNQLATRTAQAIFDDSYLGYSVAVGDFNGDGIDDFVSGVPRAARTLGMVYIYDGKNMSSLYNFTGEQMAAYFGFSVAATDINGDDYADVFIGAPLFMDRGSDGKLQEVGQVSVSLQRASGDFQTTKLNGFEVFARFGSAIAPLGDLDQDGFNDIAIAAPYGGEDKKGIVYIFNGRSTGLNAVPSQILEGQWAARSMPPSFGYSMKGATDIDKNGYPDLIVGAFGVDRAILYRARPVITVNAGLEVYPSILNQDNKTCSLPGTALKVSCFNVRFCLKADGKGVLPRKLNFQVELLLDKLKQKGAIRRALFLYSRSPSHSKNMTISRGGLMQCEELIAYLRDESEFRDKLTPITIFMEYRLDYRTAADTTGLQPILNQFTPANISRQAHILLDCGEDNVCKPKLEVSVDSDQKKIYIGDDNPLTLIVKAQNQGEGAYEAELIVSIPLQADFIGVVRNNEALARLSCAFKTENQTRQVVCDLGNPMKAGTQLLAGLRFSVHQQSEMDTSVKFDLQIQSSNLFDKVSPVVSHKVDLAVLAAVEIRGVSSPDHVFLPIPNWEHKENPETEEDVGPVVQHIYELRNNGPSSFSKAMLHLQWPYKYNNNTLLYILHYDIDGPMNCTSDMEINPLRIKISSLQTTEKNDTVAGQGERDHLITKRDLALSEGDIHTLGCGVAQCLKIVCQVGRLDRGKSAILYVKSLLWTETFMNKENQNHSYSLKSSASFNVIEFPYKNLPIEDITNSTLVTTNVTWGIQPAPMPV
T1 sequence (P18084 24-719, chain 2 of 2): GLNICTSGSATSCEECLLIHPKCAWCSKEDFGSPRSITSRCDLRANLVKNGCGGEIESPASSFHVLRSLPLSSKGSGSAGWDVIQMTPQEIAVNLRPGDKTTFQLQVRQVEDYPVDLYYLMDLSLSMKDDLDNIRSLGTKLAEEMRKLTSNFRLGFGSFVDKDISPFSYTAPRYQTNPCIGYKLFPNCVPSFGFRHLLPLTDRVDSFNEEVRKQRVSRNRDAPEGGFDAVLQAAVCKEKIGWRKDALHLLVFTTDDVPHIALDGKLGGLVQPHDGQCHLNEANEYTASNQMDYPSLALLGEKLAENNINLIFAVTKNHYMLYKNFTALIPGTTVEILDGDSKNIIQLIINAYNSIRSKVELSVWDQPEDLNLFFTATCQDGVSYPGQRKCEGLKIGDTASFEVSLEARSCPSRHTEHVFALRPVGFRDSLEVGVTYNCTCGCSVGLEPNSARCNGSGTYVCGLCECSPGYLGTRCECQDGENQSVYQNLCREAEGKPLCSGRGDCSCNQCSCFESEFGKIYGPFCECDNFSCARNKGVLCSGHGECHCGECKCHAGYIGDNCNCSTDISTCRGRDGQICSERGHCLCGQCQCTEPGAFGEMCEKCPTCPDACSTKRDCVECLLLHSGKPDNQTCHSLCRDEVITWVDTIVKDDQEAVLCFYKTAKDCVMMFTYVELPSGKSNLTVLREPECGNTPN

B1: VTN62-292,D80Y (ligand)
chain: MVTRGDVFTMPEDEYTVYDYGEEKNNATVHEQVGGPSLTSDLQAQSKGNPEQTPVLKPEEEAPAPEVGASKPEGIDSRPETLHPGRPQPPAEEELCSGKPFDAFTDLKNGSLFAFRGQYCYELDEKAVRPGYPKLIRDVWGIEGPIDAAFTRINCQGKTYLFKGSQYWRFEDGVLDPDYPRNISDGFDGIPDNVDAALALPAHSYSGRERVYFFKGKQYWEYQFQHQPSQEEHHHHHH
notes: also called D80Y mutant
B1: the “fold increase in binding affinity” value in experiment [1] is about 2 fold.

B2: VTN62-292 T63G, V67N, F68P (ligand)
chain: VGRGDNPTMPEDEYTVYDDGEEKNNATVHEQVGGPSLTSDLQAQSKGNPEQTPVLKPEEEAPAPEVGASKPEGIDSRPETLHPGRPQPPAEEELCSGKPFDAFTDLKNGSLFAFRGQYCYELDEKAVRPGYPKLIRDVWGIEGPIDAAFTRINCQGKTYLFKGSQYWRFEDGVLDPDYPRNISDGFDGIPDNVDAALALPAHSYSGRERVYFFKGKQYWEYQFQHQPSQEEHHHHHH
notes: also called VN-3
Usually EC50 stands for the concentration giving half of the maximal effect. A lower EC50 goes with higher potency in that assay. Consider B2, for which the “fold increase in ED50” value in experiment [2] was over 7 fold. The molecule further returned an EC50 in experiment [3] of 0.523 µg/mL.
